This data set can be described thus: protein stability index of a GFP-peptide fusion (GPS, HEK-293T) (PSI 1-6); higher = more stable.
[1] abbreviates: treatment: DMSO, c terminus: native.
[2] abbreviates: treatment: MLN4924 1 uM, 8 h, c terminus: native.
[3] abbreviates: treatment: DMSO, c terminus: a fixed tail appended.
[4] abbreviates: treatment: MLN4924 1 uM, 8 h, c terminus: a fixed tail appended.

The text below walks through data of the supplement of paper PMC10567573.

± gives the standard deviation.
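Also: 24-mer peptide tiles fused after GFP, lentivirally expressed, FACS-sorted into six equal bins by GFP/DsRed ratio, decoded by Illumina sequencing, PSI is the read-weighted mean bin number.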

With TSPVYRGSSSGPSSPARVSTTPR [MTUS2], the protein stability index reads like this: under setting [1], 4.45 ± 0.2; under setting [2], 4.48 ± 0.13.

As to DKNVQVVELPIVDSLHPRPPYLPL [FUT8], the protein stability index is, setting by setting: under setting [3], 3.2 ± 0.29; under setting [4], 3.35 ± 0.28.

Consider DMVEFLLEQCSASIEVGGSVNFDG [FEM1C], for which the protein stability index turned out to be 2.17 ± 0.76 under setting [3] and 2.4 ± 0.24 under setting [4].

For the sequence YGAVELSGAGRRKNATRETTSTLK [IRX6], the protein stability index is, setting by setting: under setting [3], 4.56 ± 0.38; under setting [4], 4.52 ± 0.29.

As for MLENYSNLVSVGYQAGKPDALTKL [ZNF649], the protein stability index was 2.72 ± 0.2 under setting [3] and 2.83 ± 0.18 under setting [4].

As for SGSSYRDALQRYGTSHGAPPARGP [RBMY1A1], the protein stability index was determined as 4.1 ± 0.22 under setting [3] and 4.14 ± 0.25 under setting [4].

QALSNVPPLRNYFLEEDNYKNIKR [USP39] came in with a protein stability index under setting [3] of 3.77 ± 0.28 and a protein stability index under setting [4] of 4.18 ± 0.48.

Take EGNHPSARKLTAQRRASTVSSVTQ [NET1]: the protein stability index runs as follows: under setting [3], 4.39 ± 0.25; under setting [4], 4.69 ± 0.18.

As for HAIYSLSYPMRRSYRYKLLNWAYQ [STEAP1], the protein stability index was found to be 2.33 ± 0.71 under setting [3] and 2.63 ± 0.61 under setting [4].

For the sequence PHFLRVPCWKITLFVIVPVLGPLV [MOG], the protein stability index was 2.9 ± 0.65 under setting [3] and 2.85 ± 0.3 under setting [4].

LRRAWFSWPRASPASGASSIKPEA [SCNN1D] came in with a protein stability index under setting [3] of 2.99 ± 0.18 and a protein stability index under setting [4] of 3.04 ± 0.19.

Turning to KGAVPRSIPNLAEVKKKGKMKKLG [HDAC6], the protein stability index came to 4.51 ± 0.36 under setting [3] and 4.35 ± 0.5 under setting [4].

Consider LDPVLQAPGTGPAQTELLCCLVKM [FANCE], for which the protein stability index by setting is: under setting [3], 2.47 ± 0.32; under setting [4], 2.32 ± 0.49.

LLEKDYFGLTYRDAENQKNWLDPA [EPB41L3] had a protein stability index under setting [3] of 3.1 ± 0.29 and a protein stability index under setting [4] of 3.48 ± 0.29.

For the sequence AMCVGCGSQIHDQFILRVSPDLEW [ISL2], the protein stability index reads like this: under setting [3], 2.18 ± 0.36; under setting [4], 2.16 ± 0.21.

Consider GTWVTFGGQITDEMAEQLMTLAYD [KCNAB2], for which the protein stability index worked out at 2.17 ± 0.37 under setting [3] and 2.28 ± 0.29 under setting [4].

Consider RLIATKNPEEIRGGGLLKYSNLLV [TENT5C], for which the protein stability index under setting [3] was 2.44 ± 0.35 and the protein stability index under setting [4] is 2.26 ± 0.26.

Turning to NEIFTQLYRTLFSVINNGHNQKVH [PDS5B], the protein stability index by setting is: under setting [3], 2.24 ± 0.47; under setting [4], 2.47 ± 0.56.

IELDRTIMPDGTIVTTVTTVQSRP [C2CD2L] had a protein stability index under setting [3] of 2.1 ± 0.14 and a protein stability index under setting [4] of 2.09 ± 0.23.

PPNTRVLRVLPNLPCVVQEGAIVM [PYCR3] showed a protein stability index under setting [3] of 2.22 ± 0.22 and a protein stability index under setting [4] of 2.39 ± 0.25.

Take PLQFLGLFENSLCRLTHIPAYKVS [ZER1]: the protein stability index by setting is: under setting [3], 2.02 ± 0.55; under setting [4], 2.08 ± 0.5.

As to KFSGLYILSFTVIMVGFILYCSTP [SLC35F2], the protein stability index stood at 3.22 ± 0.4 under setting [3] and 3.17 ± 0.24 under setting [4].

In turn, YFHINQTLREAHFHSLQHRGRPLT [FAM104A] registered a protein stability index under setting [3] of 2.96 ± 0.15 and a protein stability index under setting [4] of 3.21 ± 0.31.

With YEKKQTLGQNDTGFSCDGTANTFR [BTBD1], the protein stability index under setting [3] was found to be 4.23 ± 0.3 and the protein stability index under setting [4] came to 4.15 ± 0.14.

Take IRLTQYIDGQGRPRTSQSEETRVW [CAMK2B]: the protein stability index is, setting by setting: under setting [3], 3.13 ± 0.3; under setting [4], 3.16 ± 0.14.

Consider QKVASNHSPFSSESRALSTSSNLG [TBX5], for which the protein stability index amounted to 4.19 ± 0.17 under setting [3] and 4.29 ± 0.085 under setting [4].

Regarding STDDFFFREDGAYEFNPDFLEEAH [N4BP2L1], the protein stability index reads like this: under setting [3], 4.99 ± 0.34; under setting [4], 4.89 ± 0.17.

Regarding MDGATLCNCALEELRLVFGPLGDQ [ELF3], the protein stability index was found to be 2.33 ± 0.27 under setting [3] and 2.4 ± 0.68 under setting [4].

Regarding DSAQFTKALAIILHLLYLLEKVEC [FEM1A], the protein stability index by setting is: under setting [3], 2.22 ± 0.33; under setting [4], 2.11 ± 0.34.

Regarding STLKTLLFFTALMITVPIGLYFTT [VMA21], the protein stability index reads like this: under setting [3], 2.45 ± 0.19; under setting [4], 2.31 ± 0.19.

In the case of GAPSVGQPGAGFGMPPAGTGMPMM [SNAP91], the protein stability index amounted to 3.61 ± 0.23 under setting [3] and 3.76 ± 0.23 under setting [4].

In the case of FSGRMEVLTDSEGWILIDRCGKHF [KCTD10], the protein stability index by setting is: under setting [3], 2.57 ± 0.28; under setting [4], 2.77 ± 0.4.

GEGLRIYWGSPEEQSLLSRWNPWS [TPRG1]: the protein stability index is 2.28 ± 0.2 under setting [3] and 1.9 ± 0.35 under setting [4].

For VAVDSNLRVRELQRKVDGIQKAYD [CCDC89], the protein stability index reads like this: under setting [3], 3.85 ± 0.21; under setting [4], 3.94 ± 0.39.

ERKQALYEYARRRFTERRAQEAD [AUP1]: the protein stability index reads like this: under setting [1], 4.22 ± 0.15; under setting [2], 4.25 ± 0.29.

As to SPDVLQMLKIHRSDPQLIVQLRFC [TRADD], the protein stability index stood at 2.73 ± 0.58 under setting [3] and 2.56 ± 0.6 under setting [4].

As for SSRFSSSRLLGSASPSSSVRLGSF [PRPH], the protein stability index by setting is: under setting [3], 2.82 ± 0.24; under setting [4], 2.83 ± 0.18.

For the sequence YRLTEHERAHKGEKPYGCSECGKA [ZNF649], the protein stability index was 4.55 ± 0.38 under setting [3] and 4.85 ± 0.36 under setting [4].

For the sequence EDIALNKHRSRRKWCFWNSSPAVA [RHOBTB1], the protein stability index by setting is: under setting [3], 2.31 ± 0.22; under setting [4], 2.28 ± 0.23.

Regarding DDLTVVDAASLRRQIIKLNRRLQL [MFF], the protein stability index under setting [3] amounted to 2.49 ± 0.27 and the protein stability index under setting [4] stood at 2.9 ± 0.65.

In the case of CIQQILEAVLHCHQMGVVHRDLKP [CAMK2A], the protein stability index runs as follows: under setting [3], 2.75 ± 0.32; under setting [4], 3.03 ± 0.36.

For the sequence KRQVPTEQARAYAEKNCMTFFEVS [RAB40C], the protein stability index under setting [3] turned out to be 3.16 ± 0.36 and the protein stability index under setting [4] worked out at 3.29 ± 0.37.

Consider PRTSEAQARKALFEKWEQETAAGK [SMTNL2], for which the protein stability index runs as follows: under setting [3], 5.1 ± 0.31; under setting [4], 5.02 ± 0.24.

Regarding GGSHPSRPNSRHTPSFSGDSSSSC [VDR], the protein stability index is 4.75 ± 0.28 under setting [3] and 4.73 ± 0.19 under setting [4].

On to LTSADRETAEEVSARIVQVVTAEA [MAP2], for which the protein stability index came to 4.86 ± 0.28 under setting [3] and 4.89 ± 0.42 under setting [4].

Consider RIGEATKPDGTVEQIGHILVSWLP [NET1], for which the protein stability index under setting [3] is 2.68 ± 0.29 and the protein stability index under setting [4] turned out to be 2.56 ± 0.24.

For the sequence DGKGKINKEYIKRLLMSQADKMTA [MYL5], the protein stability index worked out at 2.97 ± 0.25 under setting [3] and 3.13 ± 0.33 under setting [4].

Consider LTVLPKLQARERGEEQVELSTIEE [C2CD2L], for which the protein stability index reads like this: under setting [3], 5.14 ± 0.17; under setting [4], 4.96 ± 0.54.

For the sequence ENQRENLEQPFLSVFKKGRRRVPV [PLEKHN1], the protein stability index is 3.31 ± 0.4 under setting [3] and 3.46 ± 0.18 under setting [4].

As for FIEALIQQYQEQLDKSTKLVETAI [TRIM63], the protein stability index came to 2.66 ± 0.52 under setting [3] and 2.14 ± 0.39 under setting [4].

Regarding TPATPEDPAPLWGPPPAQGSPGDG [EMID1], the protein stability index is 5.3 ± 0.48 under setting [3] and 5.31 ± 0.22 under setting [4].

NRVSAIIFSLATEWVISTGHDKCV [WDFY1] registered a protein stability index under setting [3] of 2.96 ± 0.23 and a protein stability index under setting [4] of 2.89 ± 0.4.

With EAETPPNGPDCGYGSFHQQYWLDG [ATE1], the protein stability index is, setting by setting: under setting [3], 3.89 ± 0.31; under setting [4], 4.15 ± 0.11.
